Test results taken from PMC3752671 (Journal of structural biology, 2013).
One block for each binder: values may come before it.

Tests used:
cryo-EM structure = molecular target: the molecule itself; test: cryo-EM structure
[1] = molecular target: T1, recombinant porcine amelogenin rP172 (porcine), P45561; test: cryo-EM structure; conditions: remark: other sources report otherwise
T1 chain: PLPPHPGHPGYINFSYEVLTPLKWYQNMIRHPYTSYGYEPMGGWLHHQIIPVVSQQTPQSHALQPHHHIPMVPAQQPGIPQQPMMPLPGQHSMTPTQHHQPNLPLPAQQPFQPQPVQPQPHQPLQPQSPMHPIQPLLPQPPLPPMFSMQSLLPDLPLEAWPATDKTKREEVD

B1: full-length native porcine amelogenin P173 (natural protein, UniProt P45561 17-189, looked up)
chain: MPLPPHPGHPGYINFSYEVLTPLKWYQNMIRHPYTSYGYEPMGGWLHHQIIPVVSQQTPQSHALQPHHHIPMVPAQQPGIPQQPMMPLPGQHSMTPTQHHQPNLPLPAQQPFQPQPVQPQPHQPLQPQSPMHPIQPLLPQPPLPPMFSMQSLLPDLPLEAWPATDKTKREEVD
modifications: phosphoserine at 16 (S-16); degree of phosphorylation ~85% by mass spectrometry
stoichiometry N (cryo-EM structure): 12

stoichiometry N [1]: 12
B2: recombinant porcine amelogenin rP172, P45561 18-189 (natural protein)
chain: T1 chain
